In article PMC3327674, “Structural and Functional Characterization of Mature Forms of Metalloprotease E495 from Arctic Sea-Ice Bacterium Pseudoalteromonas sp. SM495” (PLoS ONE, 2012):
Blank lines part the entries; values can stand above or below the binder they belong to.

Biological target: C-phycocyanin, Q54715;Q54714
Assay: SPR
Conditions: chain shown with the change, 2 µM analyte, 20 µl/min, 25°C, CPC-coated chip, read off a plot

response (parent: est. 57): 33 RU
B1: GST-fused PPC1 domain of metalloprotease E495 F5A (protein)
chain: EQLFATLDVPAGASNLVFNTNGGSGDADLYVRFGSKPTLSTYDCNSTTSTSTESCSIGSAQAGTYYVMVEA

response (parent: est. 53): 35 RU
B2: GST-fused PPC2 domain of metalloprotease E495 F5A (protein)
chain: GWTRATQNLDAGYSSLDISMAGGSGDADLYVNFGSASSTSSYECRPYKNGNVETCTIENPQAGTWYIDLQG
